# Results from doi:10.1101/2025.03.01.640934 (bioRxiv, 2025).
# B1: recombinant DK fragment (DUF3669 and KRAB domains; residues 1-191) of ZNF746 (domain or fragment)
# chain: not shown
# Target: the molecule itself
# Experiment: native MS
protein,measurement,value
B1,stoichiometry N,3
